Laboratory results published in patent US9333268B2, “Methods of treatment with arginine deiminase” (Polaris Group, priority 2012, dated 2016).

Columns and labels:
[1] = test system: human pancreatic cancer cell line MIA-PaCa2; experiment: Cell death by PI-FACS (sub-G1 DNA content) and Annexin V-PI flow cytometry; assay type: cell-based
Description: (§1) The human pancreatic cancer cell line MIA-PaCa2 was treated in vitro and in vivo with pegylated arginine deiminase (ADI-PEG) alone or in the presence of ChQ. Cell death was measured by propidium iodide (PI)-FACS to determine sub-G1 DNA content, and apoptosis was evaluated by Annexin V-PI flow cytometry. Cleavage of caspase 3 was evaluated by western blots and ELISA. Autophagy was measured by evaluating the expression levels of LC3 and […] p62 (p62) by western blots and ELISA.
(§2) In order to determine if ADI induces apoptosis and autophagy in a caspase dependent manner, cells were incubated with either ADI-PEG or a combination of ADI-PEG and ZVAD-fmk, a pan-caspase inhibitor.
(§3) The levels of p62, LC3B-I, and LC3B-II were measured by western blot analysis in order to examine autophagic flux.
In order to examine whether ChQ alters the amount of apoptotic or non-apoptotic cell death when used in combination with ADI, cells were incubated with ADI-PEG alone or a combination of ADI-PEG and ChQ.

[2] = test system: human pancreatic cancer cell line MIA-PaCa2; experiment: Western blot/ELISA of caspase 3 cleavage, LC3 and p62; assay type: cell-based; settings: 72 hours
Description: as §1, §2, §3

B1: ADI-PEG: ADI covalently modified with PEG (with or without a linking group) (protein, listed as Mycoplasma hominis)
chain: MSVFDSKFNGIHVYSEIGELETVLVHEPGREIDYITPARLDELLFSAILESHDARKEHQSFVKIMKDRGINVVELTDLVAETYDLASKAAKEEFIETFLEETVPVLTEANKEAVRAFLLSKPTHEMVEFMMSGITKYELGVESENELIVDPMPNLYFTRDPFASVGNGVTIHFMRYIVRRRETLFARFVFRNHPKLVKTPWYYDPAMKMSIEGGDVFIYNNETLVVGVSERTDLDTITLLAKNIKANKEVEFKRIVAINVPKWTNLMHLDTWLTMLDKNKFLYSPIANDVFKFWDYDLVNGGAEPQPQLNGLPLDKLLASIINKEPVLIPIGGAGATEMEIARETNFDGTNYLAIKPGLVIGYDRNEKTNAALKAAGITVLPFHGNQLSLGMGNARCMSMPLSRKDVKW
modifications: PEGylated
**Q.** For B1, which “Annexin V depolarization” value ([1]; 0.3 μg/mL, 72 hours, vs PBS) is on record?
**A.** The value was “induced Annexin V depolarization”.

**Q.** What about the “number of cells in sub-G0/G1” value ([1]; ADI-PEG alone) of the same molecule?
**A.** The value was “increased the number of cells in sub-G0/G1”.

**Q.** And the “LC3B conjugation with PE” value ([2]; dose dependent)?
**A.** The value was “LC3B conjugation with PE”.

**Q.** And the caspase cleavage ([2]; dose dependent)?
**A.** Its caspase cleavage is “induces caspase cleavage”.

**Q.** And the “apoptosis as measured by caspase 3 cleavage” value ([2]; ADI-PEG 0.3 μg/mL, western blot)?
**A.** Its value is “induction of apoptosis”.
